Values belong to the binder of their own block, whether it stands above or below them.
Tests used:
[1] = biological target: T1, Gadd45β/MKK7 complex (biotin-hGadd45β with coated GST-MKK7, ELISA format) (human, UniProt O75293 1-160; O14733 1-419, biotinylated (sites not given)); assay: competition ELISA; coated GST-MKK7, biotin-hGadd45β; single dose
T1 construct: not shown: glutathione S-transferase (GST) fusion partner
T1 sequence (looked up) 1: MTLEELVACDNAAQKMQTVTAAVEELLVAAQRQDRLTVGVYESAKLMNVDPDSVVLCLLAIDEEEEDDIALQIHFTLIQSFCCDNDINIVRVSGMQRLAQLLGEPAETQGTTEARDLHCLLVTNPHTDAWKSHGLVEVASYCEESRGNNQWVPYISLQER
T1 sequence (looked up) 2: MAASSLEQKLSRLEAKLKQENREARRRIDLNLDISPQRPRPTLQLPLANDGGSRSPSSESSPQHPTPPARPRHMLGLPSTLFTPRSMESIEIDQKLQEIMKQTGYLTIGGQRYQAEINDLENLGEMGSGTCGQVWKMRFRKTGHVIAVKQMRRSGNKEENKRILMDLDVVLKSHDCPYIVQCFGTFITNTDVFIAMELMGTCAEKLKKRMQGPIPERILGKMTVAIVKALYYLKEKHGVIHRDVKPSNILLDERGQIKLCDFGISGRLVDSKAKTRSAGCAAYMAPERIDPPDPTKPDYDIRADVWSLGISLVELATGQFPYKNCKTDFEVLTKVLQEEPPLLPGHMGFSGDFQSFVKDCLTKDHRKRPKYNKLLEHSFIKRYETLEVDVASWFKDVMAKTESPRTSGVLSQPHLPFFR

[2] = biological target: T1, Gadd45β/MKK7 complex (biotin-hGadd45β …); assay: ELISA competition: coated GST-MKK7 (42 nM), soluble biotin-hGadd45β (21 nM), increasing peptide; read-out % binding of biotin-hGadd45β to MKK7
[3] = biological target: T2, MKK7KD (constitutively active kinase domain of MKK7, residues 101 to 405, S287D and T291D, His6 fusion) (UniProt O14733-3 101-405); assay: SPR (Biacore 3000), Gadd45β immobilized, MKK7KD injected at 1-25 nM
T2 construct: range 101-405; also called MKKKD; not shown: His6 tag
T2 sequence (looked up): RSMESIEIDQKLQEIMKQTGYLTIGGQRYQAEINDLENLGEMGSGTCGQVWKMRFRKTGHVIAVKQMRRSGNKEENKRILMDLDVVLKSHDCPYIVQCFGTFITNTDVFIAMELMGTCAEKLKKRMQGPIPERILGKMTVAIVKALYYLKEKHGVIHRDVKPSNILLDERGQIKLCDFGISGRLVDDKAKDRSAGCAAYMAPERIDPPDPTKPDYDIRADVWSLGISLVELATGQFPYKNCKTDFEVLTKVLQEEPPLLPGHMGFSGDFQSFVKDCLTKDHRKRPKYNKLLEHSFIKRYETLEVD
Procedure: On another channel the same procedure of activation with EDC/NHS and inactivation with ethanolamine was performed.

[4] = biological target: T2, MKK7KD (constitutively active kinase …); assay: SPR (Biacore 3000), MKK7KD immobilized, Gadd45β injected at 20-200 nM

- % Inhibition of Gadd45β-MKK7 binding [1]: 94%
- IC50 [2]: 0.4 nM
B1: Ac-YDHF-NH2 (peptide)
peptide: Ac-YDHF-NH2
notes: also called Ac-LTP1; LTP1

- Kd [3]: 3.4 nM
- Kd [4]: 4 nM
B2: Full length human Gadd45β (other, UniProt O75293 1-160, looked up)
chain: T1 sequence (looked up) 1
notes: also called Gadd45β (SPR)

- % Inhibition of Gadd45β-MKK7 binding [1]: 93%
- IC50 [2]: 0.4 nM
B3: Ac-YERF-NH2 (peptide)
peptide: Ac-YERF-NH2
notes: also called Ac-LTP2; LTP2
